Patent US20260167721A1 (ABLEXIS, published 2026)

B1: CD3 × CD33-BspAb42 (bispecific antibody)
chain 1: EVQLVESGGGLVKPGGSLRLSCAASGFTLSSYSMNWVRQAPGKCLEWVSSISRSGSYIYYADSVKGRFTISRDNAKNSLYLQMNSLRAEDTAVYYCAREKWELLYFDYWGQGTLVTVSSGGGGSGGGGSGGGGSGGGGSNFMLTQPHSVSESPGKTVTISCTRSSGSIASNYVQWYQQRPGSSPTTVIYEDNQRPSGVPDRFSGSIDSSSNSASLTISGLKTEDEADYYCQSYDSSNRVFGCGTKLTVLDKTHTCPPCPAPEFEGGPSVFLFPPKPKDTLMISRTPEVTCVVVDVSHEDPEVKFNWYVDGVEVHNAKTKPREEQYNSTYRVVSVLTVLHQDWLNGKEYKCKVSNKALPASIEKTISKAKGQPREPQVYTLPPCREEMTKNQVSLWCLVKGFYPSDIAVEWESNGQPENNYKTTPPVLDSDGSFFLYSKLTVDKSRWQQGNVFSCSVMHEALHNHYTQKSLSLSPGK
chain 2: EVQLVQSGAEVKKPGSSVKVSCKASGYTITDSNIHWVRQAPGQSLEWIGYIYPYNGGTDYNQKFKNRATLTVDNPTNTAYMELSSLRSEDTAFYYCVNGNPWLAYWGQGTLVTVSSASTKGPSVFPLAPSSKSTSGGTAALGCLVKDYFPEPVTVSWNSGALTSGVHTFPAVLQSSGLYSLSSVVTVPSSSLGTQTYICNVNHKPSNTKVDKRVEPKSCDKTHTCPPCPAPEFEGGPSVFLFPPKPKDTLMISRTPEVTCVVVDVSHEDPEVKFNWYVDGVEVHNAKTKPREEQYNSTYRVVSVLTVLHQDWLNGKEYKCKVSNKALPASIEKTISKAKGQPREPQVCTLPPSREEMTKNQVSLSCAVKGFYPSDIAVEWESNGQPENNYKTTPPVLDSDGSFFLVSKLTVDKSRWQQGNVFSCSVMHEALHNRFTQKSLSLSPGK
chain 3: DIQLTQSPSTLSASVGDRVTITCRASESLDNYGIRFLTWFQQKPGKAPKLLMYAASNQGSGVPSRFSGSGSGTEFTLTISSLQPDDFATYYCQQTKEVPWSFGQGTKVEVKRTVAAPSVFIFPPSDEQLKSGTASVVCLLNNFYPREAKVQWKVDNALQSGNSQESVTEQDSKDSTYSLSSTLTLSKADYEKHKVYACEVTHQGLSSPVTKSFNRGEC
B2: CD3 × CD33-BspAb37 (bispecific antibody)
chain 1: not shown
chain 2: EVQLVQSGAEVKKPGSSVKVSCKASGYTITDSNIHWVRQAPGQSLEWIGYIYPYNGGTDYNQKFKNRATLTVDNPTNTAYMELSSLRSEDTAFYYCVNGNPWLAYWGQGTLVTVSSASTKGPSVFPLAPSSKSTSGGTAALGCLVKDYFPEPVTVSWNSGALTSGVHTFPAVLQSSGLYSLSSVVTVPSSSLGTQTYICNVNHKPSNTKVDKRVEPKSCDKTHTCPPCPAPEFEGGPSVFLFPPKPKDTLMISRTPEVTCVVVDVSHEDPEVKFNWYVDGVEVHNAKTKPREEQYNSTYRVVSVLTVLHQDWLNGKEYKCKVSNKALPASIEKTISKAKGQPREPQVCTLPPSREEMTKNQVSLSCAVKGFYPSDIAVEWESNGQPENNYKTTPPVLDSDGSFFLVSKLTVDKSRWQQGNVFSCSVMHEALHNRFTQKSLSLSPGK
chain 3: DIQLTQSPSTLSASVGDRVTITCRASESLDNYGIRFLTWFQQKPGKAPKLLMYAASNQGSGVPSRFSGSGSGTEFTLTISSLQPDDFATYYCQQTKEVPWSFGQGTKVEVKRTVAAPSVFIFPPSDEQLKSGTASVVCLLNNFYPREAKVQWKVDNALQSGNSQESVTEQDSKDSTYSLSSTLTLSKADYEKHKVYACEVTHQGLSSPVTKSFNRGEC
B3: CD3 × CD33-BspAb44 (bispecific antibody)
chain 1: EVQLVESGGGLVKPGGSLRLSCAASGFTFSRYSMNWVRQAPGKCLKWVSSISSSGSYKYYADSVKGRFTISRDNAKNSLYLQMNSLRAEDTAVYYCAREPPTLGMDYWGQGTLVTVSSGGGGSGGGGSGGGGSGGGGSNFMLTQPHSVSESPGKTVTISCTRSSGSIASNYVQWYQQRPGSSPTTVIYEDNQRPSGVPDRFSGSIDSSSNSASLTISGLKTEDEADYYCQSFDNSNRVFGCGTKLTVLDKTHTCPPCPAPEFEGGPSVFLFPPKPKDTLMISRTPEVTCVVVDVSHEDPEVKFNWYVDGVEVHNAKTKPREEQYNSTYRVVSVLTVLHQDWLNGKEYKCKVSNKALPASIEKTISKAKGQPREPQVYTLPPCREEMTKNQVSLWCLVKGFYPSDIAVEWESNGQPENNYKTTPPVLDSDGSFFLYSKLTVDKSRWQQGNVFSCSVMHEALHNHYTQKSLSLSPGK
chain 2: EVQLVQSGAEVKKPGSSVKVSCKASGYTITDSNIHWVRQAPGQSLEWIGYIYPYNGGTDYNQKFKNRATLTVDNPTNTAYMELSSLRSEDTAFYYCVNGNPWLAYWGQGTLVTVSSASTKGPSVFPLAPSSKSTSGGTAALGCLVKDYFPEPVTVSWNSGALTSGVHTFPAVLQSSGLYSLSSVVTVPSSSLGTQTYICNVNHKPSNTKVDKRVEPKSCDKTHTCPPCPAPEFEGGPSVFLFPPKPKDTLMISRTPEVTCVVVDVSHEDPEVKFNWYVDGVEVHNAKTKPREEQYNSTYRVVSVLTVLHQDWLNGKEYKCKVSNKALPASIEKTISKAKGQPREPQVCTLPPSREEMTKNQVSLSCAVKGFYPSDIAVEWESNGQPENNYKTTPPVLDSDGSFFLVSKLTVDKSRWQQGNVFSCSVMHEALHNRFTQKSLSLSPGK
chain 3: DIQLTQSPSTLSASVGDRVTITCRASESLDNYGIRFLTWFQQKPGKAPKLLMYAASNQGSGVPSRFSGSGSGTEFTLTISSLQPDDFATYYCQQTKEVPWSFGQGTKVEVKRTVAAPSVFIFPPSDEQLKSGTASVVCLLNNFYPREAKVQWKVDNALQSGNSQESVTEQDSKDSTYSLSSTLTLSKADYEKHKVYACEVTHQGLSSPVTKSFNRGEC
B4: CD3 × CD33-BspAb51 (bispecific antibody)
chain 1: not shown
chain 2: EVQLVQSGAEVKKPGSSVKVSCKASGYTITDSNIHWVRQAPGQSLEWIGYIYPYNGGTDYNQKFKNRATLTVDNPTNTAYMELSSLRSEDTAFYYCVNGNPWLAYWGQGTLVTVSSASTKGPSVFPLAPSSKSTSGGTAALGCLVKDYFPEPVTVSWNSGALTSGVHTFPAVLQSSGLYSLSSVVTVPSSSLGTQTYICNVNHKPSNTKVDKRVEPKSCDKTHTCPPCPAPEFEGGPSVFLFPPKPKDTLMISRTPEVTCVVVDVSHEDPEVKFNWYVDGVEVHNAKTKPREEQYNSTYRVVSVLTVLHQDWLNGKEYKCKVSNKALPASIEKTISKAKGQPREPQVCTLPPSREEMTKNQVSLSCAVKGFYPSDIAVEWESNGQPENNYKTTPPVLDSDGSFFLVSKLTVDKSRWQQGNVFSCSVMHEALHNRFTQKSLSLSPGK
chain 3: DIQLTQSPSTLSASVGDRVTITCRASESLDNYGIRFLTWFQQKPGKAPKLLMYAASNQGSGVPSRFSGSGSGTEFTLTISSLQPDDFATYYCQQTKEVPWSFGQGTKVEVKRTVAAPSVFIFPPSDEQLKSGTASVVCLLNNFYPREAKVQWKVDNALQSGNSQESVTEQDSKDSTYSLSSTLTLSKADYEKHKVYACEVTHQGLSSPVTKSFNRGEC
B5: CD3 × CD33-BspAb45 (bispecific antibody)
chain 1: EVQLVESGGGLVQPGGSLRLSCAASGFTFSRYSMNWVRQAPGKCLEWVSYISSSSSSIYYADSVKGRFTISRDNAKNSLYLQMNSLRDEDTAVYYCARDRRATLDYWGQGTLVTVSSGGGGSGGGGSGGGGSGGGGSNFMLTQPHSVSESPGKTVTISCTRSSGSIASNYVQWYQQRPGSSPTTVIYEDNQRPSGVPDRFSGSIDSSSNSASLTISGLKTEDEADYYCQSYDSSNHVFGCGTKLTVLDKTHTCPPCPAPEFEGGPSVFLFPPKPKDTLMISRTPEVTCVVVDVSHEDPEVKFNWYVDGVEVHNAKTKPREEQYNSTYRVVSVLTVLHQDWLNGKEYKCKVSNKALPASIEKTISKAKGQPREPQVYTLPPCREEMTKNQVSLWCLVKGFYPSDIAVEWESNGQPENNYKTTPPVLDSDGSFFLYSKLTVDKSRWQQGNVFSCSVMHEALHNHYTQKSLSLSPGK
chain 2: EVQLVQSGAEVKKPGSSVKVSCKASGYTITDSNIHWVRQAPGQSLEWIGYIYPYNGGTDYNQKFKNRATLTVDNPTNTAYMELSSLRSEDTAFYYCVNGNPWLAYWGQGTLVTVSSASTKGPSVFPLAPSSKSTSGGTAALGCLVKDYFPEPVTVSWNSGALTSGVHTFPAVLQSSGLYSLSSVVTVPSSSLGTQTYICNVNHKPSNTKVDKRVEPKSCDKTHTCPPCPAPEFEGGPSVFLFPPKPKDTLMISRTPEVTCVVVDVSHEDPEVKFNWYVDGVEVHNAKTKPREEQYNSTYRVVSVLTVLHQDWLNGKEYKCKVSNKALPASIEKTISKAKGQPREPQVCTLPPSREEMTKNQVSLSCAVKGFYPSDIAVEWESNGQPENNYKTTPPVLDSDGSFFLVSKLTVDKSRWQQGNVFSCSVMHEALHNRFTQKSLSLSPGK
chain 3: DIQLTQSPSTLSASVGDRVTITCRASESLDNYGIRFLTWFQQKPGKAPKLLMYAASNQGSGVPSRFSGSGSGTEFTLTISSLQPDDFATYYCQQTKEVPWSFGQGTKVEVKRTVAAPSVFIFPPSDEQLKSGTASVVCLLNNFYPREAKVQWKVDNALQSGNSQESVTEQDSKDSTYSLSSTLTLSKADYEKHKVYACEVTHQGLSSPVTKSFNRGEC

Columns and labels:
[1] = molecular target: T1, CD33 on KILR-HL60 cells (UniProt P20138 18-364, limits assumed); experiment: flow cytometry on KILR-HL60 (CD33 expressing) cells, antibody at 1 ug/ml
T1 construct: whole, on cells; Target of the gemtuzumab arm; also called CD33 expressing cells

[2] = molecular target: T2, CD3 on Jurkat wild-type cells (UniProt P07766 23-207; P04234 22-171; P09693 23-182); experiment: flow cytometry on Jurkat WT cells, antibody at 1 ug/ml
T2 construct: whole, on cells; also called Jurkat WT

[3] = molecular target: T1, CD33 on KILR-HL60 cells; experiment: flow cytometry on KILR-HL60 (CD33 expressing) cells, antibody at 10 ug/ml
[4] = molecular target: T2, CD3 on Jurkat wild-type cells; experiment: flow cytometry on Jurkat WT cells, antibody at 10 ug/ml

T1 sequence (P20138 18-364 limits assumed): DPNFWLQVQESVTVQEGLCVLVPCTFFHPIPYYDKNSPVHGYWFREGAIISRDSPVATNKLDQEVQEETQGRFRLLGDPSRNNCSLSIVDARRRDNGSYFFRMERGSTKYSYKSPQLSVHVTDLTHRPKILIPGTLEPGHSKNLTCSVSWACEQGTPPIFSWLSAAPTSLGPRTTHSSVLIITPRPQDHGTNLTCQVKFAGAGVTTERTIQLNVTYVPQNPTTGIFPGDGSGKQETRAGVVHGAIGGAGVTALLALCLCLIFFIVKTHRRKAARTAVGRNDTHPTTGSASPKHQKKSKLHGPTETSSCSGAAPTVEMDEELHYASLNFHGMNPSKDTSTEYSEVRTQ
T2 sequence (P07766 23-207, chain 1 of 3): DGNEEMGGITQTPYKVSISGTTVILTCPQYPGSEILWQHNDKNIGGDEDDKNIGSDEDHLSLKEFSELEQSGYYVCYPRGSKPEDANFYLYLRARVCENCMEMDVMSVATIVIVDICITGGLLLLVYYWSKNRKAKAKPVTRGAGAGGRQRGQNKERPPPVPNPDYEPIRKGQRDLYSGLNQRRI
T2 sequence (P04234 22-171, chain 2 of 3): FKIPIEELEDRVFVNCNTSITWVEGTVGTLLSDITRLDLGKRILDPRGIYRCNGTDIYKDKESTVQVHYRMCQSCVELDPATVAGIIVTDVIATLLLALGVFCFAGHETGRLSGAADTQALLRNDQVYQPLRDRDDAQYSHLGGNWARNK
T2 sequence (P09693 23-182, chain 3 of 3): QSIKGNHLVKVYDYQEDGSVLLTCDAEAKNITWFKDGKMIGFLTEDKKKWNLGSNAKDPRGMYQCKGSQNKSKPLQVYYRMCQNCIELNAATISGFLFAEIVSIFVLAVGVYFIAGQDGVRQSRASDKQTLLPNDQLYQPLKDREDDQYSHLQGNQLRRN

| Binder | flow cytometry signal [1] | flow cytometry signal [2] | flow cytometry signal [3] | flow cytometry signal [4] |
| --- | --- | --- | --- | --- |
| B1 | 453000 | 12200 | 485000 | 26400 |
| B2 | 486000 | 10900 | 758000 | 32800 |
| B3 | 640000 | 113000 | 475000 | 84800 |
| B4 | 509000 | 12000 | 691000 | 24300 |
| B5 | 640000 | 19200 | 741000 | 38300 |
